For 94 variants, protein stability index results are on record in the supplement of paper PMC10567573.

The labels stand for the following.
B1: CDS2 (parent)
chain: LIVVTQSHLVIHNLFEGMIWFIVP
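Note: lentivirally expressed fusions sorted by FACS into six bins by GFP to DsRed ratio, PSI derived from sequencing read proportions per bin multiplied by bin number.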

In the data set the parent is B1. The data set is described as follows: protein stability index of a GFP-peptide fusion (GPS, HEK-293T) (PSI 1-6); higher = more stable. The following applies: c terminus: a fixed tail appended.
Regarding QIVVTQSHLVIHNLFEGMIWFIVP, the protein stability index worked out at 4.19.

In the case of VIVVTQSHLVIHNLFEGMIWFIVP, the protein stability index was found to be 3.56.

For the variant LIVVTQSHLVIHTLFEGMIWFIVP, the protein stability index was 1.61.

On to LIVVTQSHLVIHMLFEGMIWFIVP, for which the protein stability index was determined as 4.66.

For LIVVTQSHLVIHILFEGMIWFIVP, the protein stability index is 4.67.

Regarding LIVVTQSHLVIHYLFEGMIWFIVP, the protein stability index turned out to be 2.44.

As for LIVVTQSHLVIHNLFEGMIWFKVP, the protein stability index was 3.07.

For LIVVTQSHLVIHNLFEGMIWFPVP, the protein stability index came out at 2.56.

As for LIVVTQSHLVIHNLFEGMIWFRVP, the protein stability index was 2.85.

For LIVVTQSHLVIHNLFEGMIWFWVP, the protein stability index turned out to be 3.42.

Take LIVVTQSHLVIHNLFEGMIWFDVP: the protein stability index is 4.26.

Take LIVVTQSHLVIHNLFEGMPWFIVP: the protein stability index was determined as 3.75.

For LIVVTQSHLVIHNLFEGMLWFIVP, the protein stability index came to 1.84.

As for LIVVTQSHLVIHNLFEGMSWFIVP, the protein stability index came to 2.75.

Take LIVVTQSHLVIHNLFEGMGWFIVP: the protein stability index turned out to be 3.67.

For LIVVTQSHLVIHNLVEGMIWFIVP, the protein stability index amounted to 2.72.

As to LIVVTQSHLVIHNLNEGMIWFIVP, the protein stability index came out at 3.64.

Turning to LIVVTQSHLVIHNLSEGMIWFIVP, the protein stability index was determined as 3.64.

On to LIVVTQSHLVIHNLKEGMIWFIVP, for which the protein stability index amounted to 3.4.

Regarding LIVVTQSHLVIHNLFEGMIWVIVP, the protein stability index was 2.39.

Consider LIVVTQSHLVMHNLFEGMIWFIVP, for which the protein stability index was 2.84.

Regarding LIVVTQSHLVNHNLFEGMIWFIVP, the protein stability index was determined as 4.03.

As to LIVVTQSHLVRHNLFEGMIWFIVP, the protein stability index came out at 2.2.

Take LIVVTQSHLVKHNLFEGMIWFIVP: the protein stability index was 4.09.

As for LIVVTQSHLVLHNLFEGMIWFIVP, the protein stability index was found to be 2.48.

For LIVVTQSHLVCHNLFEGMIWFIVP, the protein stability index is 3.04.

On to LTVVTQSHLVIHNLFEGMIWFIVP, for which the protein stability index was 2.77.

Consider LWVVTQSHLVIHNLFEGMIWFIVP, for which the protein stability index came out at 3.71.

Regarding LMVVTQSHLVIHNLFEGMIWFIVP, the protein stability index was 2.66.

In the case of LRVVTQSHLVIHNLFEGMIWFIVP, the protein stability index was 3.79.

LSVVTQSHLVIHNLFEGMIWFIVP: the protein stability index was 2.69.

For LCVVTQSHLVIHNLFEGMIWFIVP, the protein stability index is 1.83.

LIVMTQSHLVIHNLFEGMIWFIVP: the protein stability index came out at 3.42.

As to LIVKTQSHLVIHNLFEGMIWFIVP, the protein stability index worked out at 4.3.

Consider LIVRTQSHLVIHNLFEGMIWFIVP, for which the protein stability index is 3.46.

For LIVSTQSHLVIHNLFEGMIWFIVP, the protein stability index turned out to be 4.44.

Regarding LIVQTQSHLVIHNLFEGMIWFIVP, the protein stability index turned out to be 2.74.

Regarding LIVFTQSHLVIHNLFEGMIWFIVP, the protein stability index is 2.09.

Regarding LISVTQSHLVIHNLFEGMIWFIVP, the protein stability index came out at 3.43.

For LIWVTQSHLVIHNLFEGMIWFIVP, the protein stability index worked out at 4.23.

Consider LIEVTQSHLVIHNLFEGMIWFIVP, for which the protein stability index worked out at 2.45.

In the case of LIYVTQSHLVIHNLFEGMIWFIVP, the protein stability index was 2.91.

As for LIQVTQSHLVIHNLFEGMIWFIVP, the protein stability index was 2.14.

Regarding LIGVTQSHLVIHNLFEGMIWFIVP, the protein stability index came to 3.92.

In the case of LIVVTQSHLVIHNLFEGMIRFIVP, the protein stability index amounted to 2.57.

LIVVTQSHLVIHNLFEGMIDFIVP: the protein stability index came to 2.87.

As to LIVVTQSHLVIHNLFEGMIMFIVP, the protein stability index worked out at 2.28.

Regarding LIVVTQSHLVIHNLFEGMIPFIVP, the protein stability index is 2.6.

Regarding LIVVTQSHLVIHNLFEGMINFIVP, the protein stability index worked out at 3.08.

Turning to LIVVTQSHLVIHNLFEGMIFFIVP, the protein stability index stood at 2.83.

LIVVTQSHLVIHNLFEGRIWFIVP: the protein stability index amounted to 1.99.

LIVVTQSHLVIHNLFEGEIWFIVP: the protein stability index was found to be 4.08.

LIVVTQSHLVIHNLFEGCIWFIVP: the protein stability index turned out to be 4.05.

Consider LIVVTQSHLVIHNLFEGIIWFIVP, for which the protein stability index worked out at 3.09.

For LIVVTQSHLVIHNLFEGVIWFIVP, the protein stability index is 4.17.

In the case of LIVVTQSHLVIHNLFEGPIWFIVP, the protein stability index was 2.89.

With LIVVTQSHLVIHNLFEGWIWFIVP, the protein stability index was determined as 2.66.

On to LIVVTQSFLVIHNLFEGMIWFIVP, for which the protein stability index amounted to 3.38.

As to LIVVTQSDLVIHNLFEGMIWFIVP, the protein stability index is 4.35.

For the variant LIVVTQSGLVIHNLFEGMIWFIVP, the protein stability index is 4.59.

Take LIVVTQSCLVIHNLFEGMIWFIVP: the protein stability index was 3.31.

As for LIVVTQSILVIHNLFEGMIWFIVP, the protein stability index amounted to 2.81.

Consider LIVVTQSVLVIHNLFEGMIWFIVP, for which the protein stability index was 4.43.

For LIVVTQSNLVIHNLFEGMIWFIVP, the protein stability index stood at 3.36.

Take LIVVTQSHLVIHNLFEYMIWFIVP: the protein stability index was found to be 1.68.

Consider LIVVTQSHLVIHNLFEDMIWFIVP, for which the protein stability index was 2.93.

For the variant LIVVTQSHLVIHNLFEMMIWFIVP, the protein stability index was determined as 3.13.

On to LIVVTQSHLVIHNLFENMIWFIVP, for which the protein stability index is 2.29.

Regarding LIVVTQSHLMIHNLFEGMIWFIVP, the protein stability index amounted to 2.77.

For the variant LIVVTQSHLLIHNLFEGMIWFIVP, the protein stability index was 1.96.

As to LIVVTQSHLQIHNLFEGMIWFIVP, the protein stability index stood at 4.6.

For LIVVTQSHLVIHNPFEGMIWFIVP, the protein stability index was 2.64.

Consider LIVVTQSHLVIHNEFEGMIWFIVP, for which the protein stability index is 2.99.

Consider LIVVTQSHLVIHNAFEGMIWFIVP, for which the protein stability index is 1.86.

On to LIVVTQSHLVIHNTFEGMIWFIVP, for which the protein stability index is 3.05.

Turning to LIVVTVSHLVIHNLFEGMIWFIVP, the protein stability index worked out at 2.76.

With LIVVTTSHLVIHNLFEGMIWFIVP, the protein stability index was 2.85.

Consider LIVVTQSHLVIHNLFEGMIWFIVH, for which the protein stability index came out at 3.13.

Regarding LIVVTQSHLVIHNLFEGMIWFIVG, the protein stability index is 3.29.

Consider LIVVTQSHLVIHNLFEGMIWFIVY, for which the protein stability index was 2.3.

For LIVVTQSHLVIHNLFEGMIWFIVC, the protein stability index stood at 3.63.

For LIVVTQSHLVIHNLFEGMIWFIVL, the protein stability index worked out at 2.19.

LIVVWQSHLVIHNLFEGMIWFIVP: the protein stability index turned out to be 2.72.

In the case of LIVVAQSHLVIHNLFEGMIWFIVP, the protein stability index came out at 2.62.

LIVVSQSHLVIHNLFEGMIWFIVP: the protein stability index was 5.49.

Take LIVVEQSHLVIHNLFEGMIWFIVP: the protein stability index came out at 2.95.

Consider LIVVQQSHLVIHNLFEGMIWFIVP, for which the protein stability index was determined as 3.1.

Take LIVVVQSHLVIHNLFEGMIWFIVP: the protein stability index was determined as 2.65.

With LIVVRQSHLVIHNLFEGMIWFIVP, the protein stability index is 3.33.

Regarding LIVVIQSHLVIHNLFEGMIWFIVP, the protein stability index was 2.58.

As for LIVVTQNHLVIHNLFEGMIWFIVP, the protein stability index turned out to be 2.81.

Regarding LIVVTQIHLVIHNLFEGMIWFIVP, the protein stability index was determined as 2.54.

As for LIVVTQHHLVIHNLFEGMIWFIVP, the protein stability index came out at 2.31.

With LIVVTQSHLVIRNLFEGMIWFIVP, the protein stability index was determined as 1.5.
